In one assay the target is hERK1-GFP (human) (UniProt P27361). The assay can be described thus: FRET or BRET; acceptor photobleaching FRET in fixed HeLa cells transfected with hERK1-GFP; partner labelled with primary antibody and Cy3-conjugated secondary antibody; GFP/Cy3 pair.
Assay [1] addresses GST-hERK1 recombinant protein (human) (UniProt P27361). The assay can be described thus: non-reducing SDS-PAGE after pull-down, band identified by MALDI-TOF-MS; GST-hERK1 on GSH-agarose incubated with HeLa mitochondrial extract, high stringency; electrophoresis in the absence of β-ME or DTT; band of MW ~130.
Assay [2] addresses endogenous phospho-ERK1/2 (human (endogenous in HeLa)) (UniProt P27361). The assay can be described thus: FRET or BRET; acceptor photobleaching FRET in fixed untransfected HeLa cells; endogenous phospho-ERK1/2 and partner labelled with primary antibodies and Cy3- or Cy5-conjugated secondary antibodies; Cy3/Cy5 pair. On the technique in general: BRET reads energy transfer from a luciferase to a nearby fluorophore.

We go through four substances from publication PMC2760858.

Turning to “Histone H4 (from UniProt P62805 1-103) (natural protein)”, the FRET efficiency (nuclei) with hERK1-GFP (human) is 0.2.

On to “GST-hERK1 recombinant protein (from UniProt P27361 1-379) (enzyme)”, for which the stoichiometry N (usually the number of molecules, sites or subunits per partner or assembly) in assay [1] amounted to 2.

Consider “Porin 31HL (VDAC1), voltage-dependent anion channel 1 (from UniProt P21796 1-283) (natural protein)”, for which the mean FRET efficiency (cytoplasm) with hERK1-GFP (human) amounted to 0.3.

As for “Histone H2A (from UniProt P0C0S8 1-130) (natural protein)”, in the assay with hERK1-GFP (human), the FRET efficiency (nuclei) was 0.3. Besides, in assay [2], the mean FRET efficiency is 0.17.
